The results in this text go back to publication PMC6580504, “A novel hydroxycinnamoyl transferase for synthesis of hydroxycinnamoyl spermine conjugates in plants” (BMC Plant Biology, 2019).

For one data set, the target named is T1, SmSpmHT (Solanum virginianum, UniProt A0A1I9J7Z8).
T1 construct: full-length ORF, 447 residues; N-terminal His-SUMO fusion from pRham N-His SUMO Kan, SUMO tag removed with SUMO Express Protease; bacterial expression
T1 sequence (A0A1I9J7Z8 1-447): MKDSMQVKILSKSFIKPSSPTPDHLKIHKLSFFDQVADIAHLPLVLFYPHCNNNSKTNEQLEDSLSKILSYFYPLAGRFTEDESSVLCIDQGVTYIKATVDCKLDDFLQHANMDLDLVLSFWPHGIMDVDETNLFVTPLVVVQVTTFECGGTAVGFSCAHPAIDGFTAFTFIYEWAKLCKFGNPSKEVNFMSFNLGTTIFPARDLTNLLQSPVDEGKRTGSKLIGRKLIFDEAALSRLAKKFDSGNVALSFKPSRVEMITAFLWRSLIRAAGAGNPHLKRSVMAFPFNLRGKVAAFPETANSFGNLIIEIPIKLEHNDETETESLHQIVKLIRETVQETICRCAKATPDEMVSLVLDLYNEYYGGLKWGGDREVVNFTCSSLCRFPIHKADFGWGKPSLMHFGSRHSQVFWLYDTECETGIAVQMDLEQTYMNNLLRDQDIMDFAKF
The data set is described as follows: spectrophotometric microplate assay. Type of data set: biochemical. Conditions: 0.1 M Tris-HCl, 10 mM EDTA, pH 9.0, 30 °C.

Substrate in data set [1]: CC(C)(COP(=O)(O)OP(=O)(O)OC[C@H]1O[C@@H](n2cnc3c(N)ncnc32)[C@H](O)[C@@H]1OP(=O)(O)O)[C@@H](O)C(=O)NCCC(=O)NCCSC(=O)/C=C/c1ccc(O)c(O)c1
The data set is described as follows: purified protein. The class given is biochemical, Solanum richardii. The conditions noted are these: 2.5 mM spermine, 0.1 M Tris-HCl, 10 mM EDTA, pH 9.0, 30 °C, acyl donor varied 0 to 240 μM.

Substrate in data set [2]: CC(C)(COP(=O)(O)OP(=O)(O)OC[C@H]1O[C@@H](n2cnc3c(N)ncnc32)[C@H](O)[C@@H]1OP(=O)(O)O)[C@@H](O)C(=O)NCCC(=O)NCCSC(=O)/C=C/c1ccc(O)cc1
The data set is described as follows: purified protein. Type of data set: biochemical, Solanum richardii. Conditions: 2.5 mM spermine, 0.1 M Tris-HCl, 10 mM EDTA, pH 9.0, 30 °C, acyl donor varied 0 to 240 μM.

Substrate in data set [3]: COc1cc(/C=C/C(=O)SCCNC(=O)CCNC(=O)[C@H](O)C(C)(C)COP(=O)(O)OP(=O)(O)OC[C@H]2O[C@@H](n3cnc4c(N)ncnc43)[C@H](O)[C@@H]2OP(=O)(O)O)ccc1O
The data set is described as follows: purified protein. Type of data set: biochemical, Solanum richardii. Conditions: 2.5 mM spermine, 0.1 M Tris-HCl, 10 mM EDTA, pH 9.0, 30 °C, acyl donor varied 0 to 240 μM.

What is called Km is the concentration of substrate that gives half-maximal velocity. For orientation: Vmax means the top rate of the reaction or transport when substrate is in excess. For orientation: kcat means the maximal rate divided by the concentration of active sites. As usually defined, the kcat/Km is the second-order rate constant that governs catalysis at low substrate concentration.

As for `CC(C)(COP(=O)(O)OP(=O)(O)OC[C@H]1O[C@@H](n2cnc3c(N)ncnc32)[C@H](O)[C@@H]1OP(=O)(O)O)[C@@H](O)C(=O)NCCC(=O)NCCSC(=O)/C=C/c1ccc(O)c(O)c1` [caffeoyl-CoA], on SmSpmHT (acyl donor, 120 μM, spermine 2.5 mM), the spectrophotometric microplate assay entry was “The recombinant proteins showed the same substrate specificity, pH preference, and catalytic activity as SrSpmHT”.

In the case of `NCCCNCCCCNCCCN` [spermine], the spectrophotometric microplate assay result at SmSpmHT (acyl acceptor, 2.5 mM, hydroxycinnamoyl-CoA donor 120 μM) was “The recombinant proteins showed the same substrate specificity, pH preference, and catalytic activity as SrSpmHT”.

B1: SrSpmHT (Solanum richardii) (protein)
chain: MKDSMQVNILSKSFIKPSSPTPDHLKIHKLSFFDQVADIAHLPLVLFYPHCNNNSKTNEQLEDSLSKILSYFYPLAGRFTEDESSVLCIDQGVTYIKATVDCKLDDFLQHANMDLDLVLSFWPHGIMDVDETNLFVTPLVVVQVTTFECGGTAVGFSCAHPAIDGFTAFTFIYEWAKLCKFGNPSKEVNFMSFNLGTTIFPARDLTNLLQSPVDEGKRTGSKLIGRKLIFDEAALSRLAKKFDSGNVALSFKPSRVEMITAFLWRSLIRAAGAGNPHLKRSVMAFPFNLRGKVAAFPETANSFGNLIIEIPIKLEHNDETETESLHQIVKLIRETVQETICRCAKATPDEMVSLVLDLYNEYYGGLKWGGDREVVNFTCSSLCRFPIHKADFGWGKPSLMHFGSRHSQVFWLYDTECETGIAVQMDLEQTYMNNLLRDQDIIDFAKF
notes: full-length ORF, 447 residues; N-terminal His-SUMO fusion from pRham N-His SUMO Kan, SUMO tag removed with SUMO Express Protease
As to B1, in the data set “purified protein [1]”, the Michaelis-Menten constant (Km) was determined as 478.4 ± 46.5 µM, the Vmax was 68.8 ± 6.08 µmol/min/mg, the kcat came to 71.5 ± 6.3 s⁻¹ and the kcat/Km was found to be 150000 ± 1000 M⁻¹ s⁻¹. Also, in “purified protein [2]”, the Km stood at 49.0 ± 1.2 µM, the Vmax was 8.15 ± 0.204 µmol/min/mg, the kcat stood at 8.5 ± 0.21 s⁻¹ and the kcat/Km turned out to be 173000 ± 1000 M⁻¹ s⁻¹. Also, in “purified protein [3]”, the Km amounted to 106.1 ± 9.0 µM, the Vmax was found to be 13.4 ± 0.48 µmol/min/mg, the kcat stood at 13.9 ± 0.5 s⁻¹ and the kcat/Km was 132000 ± 6000 M⁻¹ s⁻¹.
